{
  "source": "patent US12031137B2",
  "about": "“Compositions comprising SASP modulators and senescence attenuators and uses thereof for modulating cellular senescence” (RSEM, LIMITED PARTNERSHIP, priority 2016, dated 2024)",
  "molecules": {"B1": {"name": "Trap AK: NRP1 trap a2b1b2, aa about 22-26 and 143-583; SEQ ID NOs 61/62 (protein)", "chain": "MERGLPLLCAVLALVLAPAGAFRNDKRGPECSQNYTTPSGVIKSPGFPEKYPNSLECTYIVFAPKMSEIILEFESFDLEPDSNPPGGMFCRYDRLEIWDGFPDVGPHIGRYCGQKTPGRIRSSSGILSMVFYTDSAIAKEGFSANYSVLQSSVSEDFKCMEALGMESGEIHSDQITASSQYSTNWSAERSRLNYPENGWTPGEDSYREWIQVDLGLLRFVTAVGTQGAISKETKKKYYVKTYKIDVSSNGEDWITIKEGNKPVLFQGNTNPTDVVVAVFPKPLITRFVRIKPATWETGISMRFEVYGCKITDYPCSGMLGMVSGLISDSQITSSNQGDRNWMPENIRLVTSRSGWALPPAPHSYINEWLQIDLGEEKIVRGIIIQGGKHRENKVFMRKFKIGYSNNGSDWKMIMDDSKRKAKSFEGNNNYDTPELRTFPALSTRFIRIYPERATHGGLGLRMELLGCRSGSKENLYFQG"}, "B2": {"name": "Trap AS: NRP1 trap a2b1c, aa about 22-26, 143-430 and 584-856; SEQ ID NOs 65/66 (protein)", "chain": "MERGLPLLCAVLALVLAPAGAFRNDKRGPECSQNYTTPSGVIKSPGFPEKYPNSLECTYIVFAPKMSEIILEFESFDLEPDSNPPGGMFCRYDRLEIWDGFPDVGPHIGRYCGQKTPGRIRSSSGILSMVFYTDSAIAKEGFSANYSVLQSSVSEDFKCMEALGMESGEIHSDQITASSQYSTNWSAERSRLNYPENGWTPGEDSYREWIQVDLGLLRFVTAVGTQGAISKETKKKYYVKTYKIDVSSNGEDWITIKEGNKPVLFQGNTNPTDVVVAVFPKPLITRFVRIKPATWETGISMRFEVYGCKITDYPEVEAPTAGPTTPNGNLVDECDDDQANCHSGTGDDFQLTGGTTVLATEKPTVIDSTIQSEFPTYGFNCEFGWGSHKTFCHWEHDNHVQLKWSVLTSKTGPIQDHTGDGNFIYSQADENQKGKVARLVSPVVYSQNSAHCMTFWYHMSGSHVGTLRVKLRYQKPEEYDQLVWMAIGHQGDHWKEGRVLLHKSLKLYQVIFEGEIGKGNLGGIAVDDISINNHISQEDCAKPADLDKKNPEIKIDETGSTPGYEGEGEGDKNISRKPGNVLKTLDPRSGSKENLYFQG"}, "B3": {"name": "Trap N: NRP1 trap a1a2, aa about 22-265; SEQ ID NOs 85/86 (protein)", "chain": "FRNDKCGDTIKIESPGYLTSPGYPHSYHPSEKCEWLIQAPDPYQRIMINFNPHFDLEDRDCKYDYVEVFDGENENGHFRGKFCGKIAPPPVVSSGPFLFIKFVSDYETHGAGFSIRYELFKRGPECSQNYTTPSGVIKSPGFPEKYPNSLECTYIVFAPKMSEIILEFESFDLEPDSNPPGGMFCRYDRLEIWDGFPDVGPHIGRYCGQKTPGRIRSSSGILSMVFYTDSAIAKEGFSANYSVLRSGSKENLYFQG"}, "B4": {"name": "Trap AR: NRP1 trap a2b1, aa about 22-26 and 143-424; SEQ ID NOs 63/64 (protein)", "chain": "MERGLPLLCAVLALVLAPAGAFRNDKRGPECSQNYTTPSGVIKSPGFPEKYPNSLECTYIVFAPKMSEIILEFESFDLEPDSNPPGGMFCRYDRLEIWDGFPDVGPHIGRYCGQKTPGRIRSSSGILSMVFYTDSAIAKEGFSANYSVLQSSVSEDFKCMEALGMESGEIHSDQITASSQYSTNWSAERSRLNYPENGWTPGEDSYREWIQVDLGLLRFVTAVGTQGAISKETKKKYYVKTYKIDVSSNGEDWITIKEGNKPVLFQGNTNPTDVVVAVFPKPLITRFVRIKPATWETGISMRFEVYGCRSGSKENLYFQG"}, "B5": {"name": "Trap Z: NRP1 trap a1a2-b1b2-c, aa about 22-856, E319K, D320K; SEQ ID NOs 71/72 (protein)", "chain": "FRNDKCGDTIKIESPGYLTSPGYPHSYHPSEKCEWLIQAPDPYQRIMINFNPHFDLEDRDCKYDYVEVFDGENENGHFRGKFCGKIAPPPVVSSGPFLFIKFVSDYETHGAGFSIRYELFKRGPECSQNYTTPSGVIKSPGFPEKYPNSLECTYIVFAPKMSEIILEFESFDLEPDSNPPGGMFCRYDRLEIWDGFPDVGPHIGRYCGQKTPGRIRSSSGILSMVFYTDSAIAKEGFSANYSVLQSSVSEDFKCMEALGMESGEIHSDQITASSQYSTNWSAERSRLNYPENGWTPGKKSYREWIQVDLGLLRFVTAVGTQGAISKETKKKYYVKTYKIDVSSNGEDWITIKEGNKPVLFQGNTNPTDVVVAVFPKPLITRFVRIKPATWETGISMRFEVYGCKITDYPCSGMLGMVSGLISDSQITSSNQGDRNWMPENIRLVTSRSGWALPPAPHSYINEWLQIDLGEEKIVRGIIIQGGKHRENKVFMRKFKIGYSNNGSDWKMIMDDSKRKAKSFEGNNNYDTPELRTFPALSTRFIRIYPERATHGGLGLRMELLGCEVEAPTAGPTTPNGNLVDECDDDQANCHSGTGDDFQLTGGTTVLATEKPTVIDSTIQSEFPTYGFNCEFGWGSHKTFCHWEHDNHVQLKWSVLTSKTGPIQDHTGDGNFIYSQADENQKGKVARLVSPVVYSQNSAHCMTFWYHMSGSHVGTLRVKLRYQKPEEYDQLVWMAIGHQGDHWKEGRVLLHKSLKLYQVIFEGEIGKGNLGGIAVDDISINNHISQEDCAKPADLDKKNPEIKIDETGSTPGYEGEGEGDKNISRKPGNVLKTLDPRSGSKENLYFQG"}, "B6": {"name": "Trap AB: NRP1 trap a1a2-b1b2-c, aa about 22-856, E348K, S346A; SEQ ID NOs 73/74 (protein)", "chain": "B5 chain with K298E, K299D, S325A, E327K"}, "B7": {"name": "Trap AC: NRP1 trap a1a2-b1b2-c, aa about 22-856, D320K; SEQ ID NOs 75/76 (protein)", "chain": "B5 chain with K298E"}, "B8": {"name": "Trap AJ: NRP1 trap a2b1b2c, aa about 22-26, 143-630 and 701-856; SEQ ID NOs 59/60 (protein)", "chain": "MERGLPLLCAVLALVLAPAGAFRNDKRGPECSQNYTTPSGVIKSPGFPEKYPNSLECTYIVFAPKMSEIILEFESFDLEPDSNPPGGMFCRYDRLEIWDGFPDVGPHIGRYCGQKTPGRIRSSSGILSMVFYTDSAIAKEGFSANYSVLQSSVSEDFKCMEALGMESGEIHSDQITASSQYSTNWSAERSRLNYPENGWTPGEDSYREWIQVDLGLLRFVTAVGTQGAISKETKKKYYVKTYKIDVSSNGEDWITIKEGNKPVLFQGNTNPTDVVVAVFPKPLITRFVRIKPATWETGISMRFEVYGCKITDYPCSGMLGMVSGLISDSQITSSNQGDRNWMPENIRLVTSRSGWALPPAPHSYINEWLQIDLGEEKIVRGIIIQGGKHRENKVFMRKFKIGYSNNGSDWKMIMDDSKRKAKSFEGNNNYDTPELRTFPALSTRFIRIYPERATHGGLGLRMELLGCEVEAPTAGPTTPNGNLVDECDDDQANCHSGTGDDFQLTGGTTVLATEKPTVIDSTIQSEFPTYGFNCEFGWGSHKTFCHWEHDNHVQLKWSVLTSKTGPIQDHTGDGNFIYSQADENQKGKVARLVSPVVYSQNSAHCMTFWYHMSGSHVGTLRVKLRYQKPEEYDQLVWMAIGHQGDHWKEGRVLLHKSLKLYQVIFEGEIGKGNLGGIAVDDISINNHISQEDCAKPADLDKKNPEIKIDETGSTPGYEGEGEGDKNISRKPGNVLKTLDPRSGSKENLYFQG"}},
  "key": {"SEMA3A-FC": {"system": "SEMA3A-FC", "assay": "Sema 3A binding assay on plate-coated purified traps (saturation curves, KD)", "conditions": "for Binding to SEMA3A: Table 2, Yes/No; for Kd: traps coated on plate, overnight incubation, read-out: SEMA 3A-FC binding (dissociation constant)", "protocol": "(§1) Sema 3A and AP-VEGF165 binding assays. Saturation curves for the determinations of KD of binding to SEMA 3A or VEGF165 were obtained as follow. Wells of high protein binding 96 well plates (Maxisorp, Nunc) were coated with purified traps diluted in PBS and blocked afterward with binding buffer (PBS containing 2% casein and 0.05% Tween 20). The SEMA3A-FC (R&D systems) or AP-VEGF165 ligands were diluted in binding buffer over an extensive range of concentrations and added to wells. Following an overnight incubation, wells were washed with PBS containing 0.05% tween. Bound SEMA3a-FC was detected using an HRP-linked anti-Human IgG (Biorad) and ECL substrate (Pierce). Alternatively, bound AP-VEGF165 was detected using CPD star substrate (Roche). The Chemiluminescent signal was acquired on a TECAN reader. Dissociation constant (KD) were determined by non-linear curve fitting using the Graph Pad prism software.\n(§2) The relative affinity of traps of the present invention to SEMA3A and VEGF has been assessed. Traps were prepared as described in Example 8."}, "human VEGF165": {"target": "T1, human VEGF165 (Homo sapiens, UniProt P15692)", "T1 construct": "made in house; host or cells: HEK293T", "T1 sequence (P15692 27-191 isoform P15692-4)": "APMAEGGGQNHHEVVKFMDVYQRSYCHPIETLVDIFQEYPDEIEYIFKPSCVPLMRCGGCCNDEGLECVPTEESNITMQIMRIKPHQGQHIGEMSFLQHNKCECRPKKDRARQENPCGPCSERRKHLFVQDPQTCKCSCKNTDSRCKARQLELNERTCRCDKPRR", "assay": "AP-VEGF165 binding assay on plate-coated purified traps (saturation curves, KD)", "conditions": "AP-VEGF165 ligand; for Kd: read-out: VEGF165 binding (dissociation constant)", "protocol": "Production of AP-VEGF165. the coding sequence of the human VEGF165 variant 1 (NM_001025366) was sub-cloned in the pAPtag5 vector (GenHunter), in-frame with an Alkaline Phosphatase domain (AP-VEGF165). HEK293T cells were transfected with the AP-VEGF165 construct using a polyethylenimine (PEI) transfection method. Following the overnight transfection step, cells were cultured for an additional 60 hr in serum free media (In vitrogen). The cell media were collected and concentrated on a PES device (Pierce). The concentrated AP-VEGF165 ligand was analysed on PAGE-SDS and quantified using SimplyBlue safe stain (Life technologies).\nas §1, §2"}},
  "note": "Numbering of substitutions follows the chain as printed. Names may count otherwise.",
  "data": [
    {"molecule": "Trap S: NRP1 trap a1a2-b1-c, aa about 22-430 and 584-856; SEQ ID NOs 93/94", "values": [
      {"measurement": "Binding to SEMA3A", "setting": "SEMA3A-FC", "value": "Yes"},
      {"measurement": "Kd", "setting": "human VEGF165", "value": 24.6, "unit": "nM"}
    ]},
    {"molecule": "Trap W: NRP1 trap a1a2-b1-c (in part), aa about 22-430 and 584-795; SEQ ID NOs 87/88", "values": [
      {"measurement": "Binding to SEMA3A", "setting": "SEMA3A-FC", "value": "Yes"},
      {"measurement": "Kd", "setting": "SEMA3A-FC", "value": 1.14, "unit": "nM"},
      {"measurement": "Kd", "setting": "human VEGF165", "value": 20.7, "unit": "nM"}
    ]},
    {"molecule": "B1", "values": [
      {"measurement": "Binding to SEMA3A", "setting": "SEMA3A-FC", "value": "Yes"}
    ]},
    {"molecule": "B2", "values": [
      {"measurement": "Binding to SEMA3A", "setting": "SEMA3A-FC", "value": "Yes"}
    ]},
    {"molecule": "B3", "values": [
      {"measurement": "Binding to SEMA3A", "setting": "SEMA3A-FC", "value": "No"},
      {"measurement": "Kd", "setting": "SEMA3A-FC", "value": "> 1000", "unit": "nM"},
      {"measurement": "Kd", "setting": "human VEGF165", "value": "> 250", "unit": "nM"}
    ]},
    {"molecule": "B4", "values": [
      {"measurement": "Binding to SEMA3A", "setting": "SEMA3A-FC", "value": "Yes"}
    ]},
    {"molecule": "B5", "values": [
      {"measurement": "Binding to SEMA3A", "setting": "SEMA3A-FC", "value": "Yes"},
      {"measurement": "Kd", "setting": "human VEGF165", "value": 67, "unit": "nM"}
    ]},
    {"molecule": "B6", "values": [
      {"measurement": "Binding to SEMA3A", "setting": "SEMA3A-FC", "value": "No"},
      {"measurement": "Kd", "setting": "human VEGF165", "value": 29.5, "unit": "nM"}
    ]},
    {"molecule": "B7", "values": [
      {"measurement": "Binding to SEMA3A", "setting": "SEMA3A-FC", "value": "Yes"},
      {"measurement": "Kd", "setting": "SEMA3A-FC", "value": 4, "unit": "nM"},
      {"measurement": "VEGF165 binding (dissociation constant)", "setting": "human VEGF165", "value": "No binding"}
    ]},
    {"molecule": "B8", "values": [
      {"measurement": "Binding to SEMA3A", "setting": "SEMA3A-FC", "value": "Yes"}
    ]}
  ]
}
